Laboratory results taken from the nanobody polyreactivity screen of Harvey et al. (2022).

assay: yeast display, Sf9 membrane polyspecificity reagent, FACS + sequencing; frameworks hold sequencing errors
Summary of the method: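 A synthetic nanobody library was expressed on Saccharomyces cerevisiae BJ5465 by galactose induction for 36–48 hours. The library was stained for 1 hour at 4 °C with 10% biotinylated, detergent-solubilized Sf9 membrane reagent and enriched with streptavidin microbeads before FACS. Low and high (top ~1%) gates were set on anti-HA fluorescence for expression and streptavidin fluorescence for reagent binding, and each polyreactivity label reflects the gate of origin.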

Row | Sequence | polyreactivity (PSR sort gate)
1 | QVQLVESGGGLVQAGGSLRLSCAASGLTFAANAMGWYRQAPGKERELVAAITSSGGSTYYADSVKGRFTISRDNAKNTVYLQMNSLKPEDTAVYYCAARASRPRFGYWGQGTLVTVSS | high polyreactivity
2 | QVQLVESGGGLVQAGGSLRLSCAASGLTFAFNVMGWYRQAPGKERELVAAISASGASTYYADSVKGRFTISRDTAKNTVYLQMNSLKPEDTAVYYCAALGYCFSYRYDYWGQGTQVTVSS | high polyreactivity
3 | QVQLVESGGGLVQAGGSLRLSCAASGLTFAFYAMGWYRQAPGKEMELVARIRTSAITYYADSVKGSFTISRDNAKNTVYLQMNSLKPEDTAVYYCAAEEGRVFSGGYDYWGQGTQVTVSS | high polyreactivity
4 | QVQLVESGGGLVQAGGSLRLSCAASGLTFAGNAMGWSRQAPGTERELVAAITWTGDRTYYADSVKGRFTISRDNAKNTVYLQMNCLKPEDTAVYYCAAQVRSLYSPGWYYYWGQGTQVTVSS | high polyreactivity
5 | QVQLVESGGGLVQAGGSLRLSCAASGLTFAINTMGWYRPAPGTERELVAAITGSGGSTYYADSVKGRFTISRDNAKNTVYLQMNSLKPEDTAVYDCAAELLYVQGYAMDYWGQGTQVTVSS | low polyreactivity
6 | QVQLVESGGGLVQAGGSLRLSCAASGLTFAKNAMGWYRQAPGKERELVAAITTGGSTYYADSVKGRFTISRDNAKNTVYLQMNSLKPEDTAVYYCAAQILVRHIPYYYWGQGTQVTVSS | high polyreactivity
7 | QVQLVESGGGLVQAGGSLRLSCAASGLTFANYVMGWYRQAPGKERELVAAISGGGGSTHYADSVKGRFTISRDNAKNTVYLQMNSLKPEDTAVYYCNADKYSVYGEHPYDYWGQGTQVTVSS | low polyreactivity
8 | QVQLVESGGGLVQAGGSLRLSCAASGLTFANYVMGWYRQAPGKEREMVAAISRSGGSTYYADSVKGRFTISRDNAKYTVYLQMNSLKPEDTAVYYCAAAAWDPKGSRYDYWGQGTQVTVSS | low polyreactivity
9 | QVQLVESGGGLVQAGGSLRLSCAASGLTFAVYAMGVYRQAPGKEREVVAAINWSGGSTSYADSVKGRFTISRDNAKNTVYLQMNSLKPEDTAVYYCAAVPGSYSYWRVWYGYDYWGQGTQVTVSS | high polyreactivity
10 | QVQLVESGGGLVQAGGSLRLSCAASGLTFAYYAMGWYRQAPGKERELVAAISWNGGRTYYADSVKGRFTISRDNAKNSVYLQMNSLKPEDSAVYYCAAQVTSSFYWGQGTQVTVSS | high polyreactivity
11 | QVQLVESGGGLVQAGGSLRLSCAASGLTFAYYAMGWYRQAPGKERELVAAITSSGTSTYYADSVKGRFTISRDNAKNTVYLQMNSQKPEDTAVYYCNARVYGYRYTYRMDYWGQGTQVTVSS | high polyreactivity
12 | QVQLVESGGGLVQAGGSLRLSCAASGLTFDGNTMGWYRQAPGKERELVAAISFDGGNTYADSVKGRFTISRDNAKNTVYLQMISLKPEDTAVYYDYWGQGNQVTVSS | low polyreactivity
13 | QVQLVESGGGLVQAGGSLRLSCAASGLTFDKYTMGWYRQAPGKERELVARISTSGSRTYYADSVKGRFTISRDIAKNTVYLQMNSLKPEDTAVYYCNKDGWIRRRRGYDYWGQGTQVTVSS | high polyreactivity
14 | QVQLVESGGGLVQAGGSLRLSCAASGLTFDVYTMGWYRQAPGKEREFVAGITSGGSTDYADSVKGRFTISRDNAKNTVYLQMNSLKPEDTAVYYCNKPFPYYPDGPNGYDYWGQGTQVTVSS | low polyreactivity
15 | QVQLVESGGGLVQAGGSLRLSCAASGLTFDWYAMGWYRQAPGKERELVAAISWNGVSTDYADSVKGRFTISRDNAKYTVYLQMNRLKPEDTAVYYCAADPPWYLYVGFDYWGQGTQVNVSS | high polyreactivity
16 | QVQLVESGGGLVQAGGSLRLSCAASGLTFDWYAMGWYRQAPGKERELVAAITSVGSTYYADSVKGRFTISRDNAKNTVYLQMNSLKPEDTAVYYCAVEGVMWSFWPYEYWGQGTQVTVSS | high polyreactivity
